In the series the test system is MS2 coat protein. Nature of the series: apparent KD of MS2 coat protein; designed switch direction (-1 OFF switch, 1 ON switch): -1; higher = weaker reporter binding. A digest of the protocol: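 Designed RNA switches were transcribed on Illumina chips by stalled E. coli RNA polymerase and titrated with SNAP-549-labelled MS2 coat protein from 0.7 or 1.5 nM, doubling to 3 µM. Step length ran from 0.8–1.5 h at the lowest concentration to 10–20 min at the highest. The apparent KD is the median over clusters for each design, from curve-fitted normalised cluster fluorescence.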

Setting [1] is: input ligand: microRNA oligo, concentration not stated.
Setting [2] is: Eterna round: R95, input ligand: FMN 200 uM.
[3] abbreviates: Eterna round: R95, input ligand: microRNA oligo, concentration not stated.
Setting [4] is: Eterna round: R95, input ligand: none.

For the sequence “GAAUAGAGAGGAUAUGCGAUGUAGGUAGUACGAUAUAUCUGACAUGAGGAUCACCCAUGUAGAAGGCUCAGAUC [EX2 #6] (Eterna round: R97, puzzle: Exclusion 2)”, the “apparent KD of MS2 coat protein” value was found to be 0.0339 µM (input ligand: FMN 200 uM) and 0.0364 µM (input ligand: none).
As for “GAAUAGGCAGGAUAUACAUGAGGAUCACCCAUGUGCCGGCGAAAGGUACGUUCGAAAGGUAGAAGGGCCUAAAC [ChP 13.04.2015 #7] (Eterna round: R96, puzzle: Exclusion 3)”, the “apparent KD of MS2 coat protein” value (input ligand: FMN 200 uM) was found to be 0.176 µM, the “apparent KD of MS2 coat protein” value under setting [1] stood at 0.0367 µM and the “apparent KD of MS2 coat protein” value (input ligand: none) worked out at 0.0418 µM.
In the case of “GAAUAGGCAGGAUAUACAUGAGGAUCACCCAUGUGCCGGCGAAAGGUACGUUCGAAAGGUAGAAGGGCCUAAAC [ChP 13.04.2015 #7] (puzzle: Exclusion 3)”, the “apparent KD of MS2 coat protein” value runs as follows: under setting [2], 0.151 µM; under setting [3], 0.0438 µM; under setting [4], 0.0489 µM.
With “GAAUGAGAGCAGGAUAUCUUAAAAAUGUAUCAAAGAGAAGGGCUCACAUGAGGAUCACCCAUGUGGUCCUAGAU [jl-ex6-4.67 jandersonlee mod] (Eterna round: R97, puzzle: Exclusion 6)”, the “apparent KD of MS2 coat protein” value (input ligand: FMN 200 uM) turned out to be 0.152 µM and the “apparent KD of MS2 coat protein” value (input ligand: none) was found to be 0.0225 µM.
The matching figures for “GAAUGAGAGCAGGAUAUCUUAUAAAUGUAUGAAAGAGAAGGGCUCACAUGAGGAUCACCCAUGUGGUCCUAGAC [jl-ex6-4.72 jandersonlee mod] (Eterna round: R97, puzzle: Exclusion 6)”: 0.309 µM and 0.0401 µM.
As for “GACAGGCAGGCAGGAUAUGCCCGUGUGGAUGGUGUAGAAGGGCUAGCGGGUCACUUGAGGAUCACCCAAGUGGAGGGUGGCCUA [Mutated MS2 EX1.28] (Eterna round: R96, puzzle: Exclusion NG 1)”, the “apparent KD of MS2 coat protein” value stood at 0.0513 µM (input ligand: FMN 200 uM), 0.0312 µM under setting [1] and 0.0382 µM (input ligand: none).
With “GACAUGAGGAUCACCCAUGUAAGGGAUGAACUUCUGGGUAGCUAGGAUAUGGCUAUAAAGAUGGACCAGAAGGAGCGGACCCUA [Orlaveceat] (Eterna round: R96, puzzle: Exclusion NG 3)”, the “apparent KD of MS2 coat protein” value by setting is: (input ligand: FMN 200 uM) 0.0487 µM; under setting [1], 0.0314 µM; (input ligand: none) 0.0324 µM.
As to “GACCGGACGUGGUCUGGUAACAUGAGGAUCACCCAUGUAGGUCUAAGAACAAGCCUUUUGCACGCUCGUCUUAUAUU [JR_SV3TOV1_Sub061] (puzzle: Sensor v3, turn-off variant 1)”, the “apparent KD of MS2 coat protein” value reads like this: under setting [2], 0.0644 µM; under setting [3], 0.0565 µM; under setting [4], 0.0882 µM.
Take “GACCUGUGAGGAUAUUAUUAAAGGCCAAGUUAGGCCUUAAUUGAGAAGGCACAUGAGGAUCACCCAUGUUUGAC [Eternabot (L2) Solution 55] (Eterna round: R97, puzzle: Exclusion 4)”: the “apparent KD of MS2 coat protein” value runs as follows: (input ligand: FMN 200 uM) 0.0903 µM; (input ligand: none) 0.0223 µM.
With “GACGAGUGAGGAUAUGGUGAGUAGUGCCUGAGCGCUGCUCACCAGAAGGCACAUGAGGAUCACCCAUGUAUGUC [Mat - Exclusion 4 - Mod of JL - D11] (puzzle: Exclusion 4)”, the “apparent KD of MS2 coat protein” value under setting [3] came out at 0.0132 µM.
With “GACUAGGGAGGAUAUAUUUACAGUGUACCUCGGAUGAUCGCACUUGAGGAUCACCCAAGUAGAAGGCUCGAGGG [EX2 #28] (Eterna round: R97, puzzle: Exclusion 2)”, the “apparent KD of MS2 coat protein” value was 0.0304 µM (input ligand: FMN 200 uM) and 0.0332 µM (input ligand: none).
Regarding “GACUCAAUCCGAGGAUAUUGCCAGCGCUGCUAUCACAUGAGGAUCACCCAUGUAUCCUCGGCUUUCGAGAAGGCGGAUUGAGCG [Eternabot solution 35] (Eterna round: R96, puzzle: Exclusion NG 2)”, the “apparent KD of MS2 coat protein” value is, setting by setting: (input ligand: FMN 200 uM) 0.132 µM; under setting [1], 0.0468 µM; (input ligand: none) 0.0499 µM.
For the sequence “GAGAAGGUAGGAUAUACGAAGAAAGAGGGUAGGAAGAAUACACAUGAGGAUCACCCAUGUAGAAGGACCAAGAG [Mat - Exclusion 2 - Mod of my Tesla design - D47] (puzzle: Exclusion 2)”, the “apparent KD of MS2 coat protein” value under setting [2] was 0.0329 µM, the “apparent KD of MS2 coat protein” value under setting [3] was determined as 0.0178 µM and the “apparent KD of MS2 coat protein” value under setting [4] was found to be 0.023 µM.
The matching figures for “GAGAGAUAGAUAGAGGACGACAUGAGGAUCACCCAUGUGAGGGAAAUGUUAAGGAGAAAGCUUUUUGCUCGUCUUAA [JR_SV3TOV1_Sub034] (puzzle: Sensor v3, turn-off variant 1)”: 0.123 µM, 0.0577 µM and 0.152 µM.
For the sequence “GAGCAGGAAGGAUAUACAUGAGGAUCACCCAUGUACCAUCAAGGCUUUGAUUUUCACGGUAGAAGGUCCCAAUA [Sotece] (puzzle: Exclusion 3)”, the “apparent KD of MS2 coat protein” value under setting [3] came to 0.0348 µM.
On to “GAGGAGCAAGGAUAUACGAGGAGAGGGAAGAGAGGAGAGAGACAUGAGGAUCACCCAUGUAGAAGGUGCAAGGG [JR_Exclu2_Sub093] (puzzle: Exclusion 2)”, for which the “apparent KD of MS2 coat protein” value by setting is: under setting [2], 0.116 µM; under setting [3], 0.131 µM; under setting [4], 0.18 µM.
Turning to “GAGGUACAUGAGGAUCACCCAUGUGAGGAUAUAGGUAGAGAUUGAGAGAGGUGGAGGACUAGAAGGCACAGUGG [JR_Exclu1_Sub040] (puzzle: Exclusion 1)”, the “apparent KD of MS2 coat protein” value runs as follows: under setting [2], 0.0596 µM; under setting [3], 0.046 µM; under setting [4], 0.0603 µM.
In the same order, the values of “GAGGUGUUAGGAUAUCGGAGAUGGAGAAGAACGGGAUGAGCCGAGAAGGAACAUGAGGAUCACCCAUGUAGGUG [JR_Exclu4_Sub031] (puzzle: Exclusion 4)” are 0.415 µM, 0.42 µM and 0.553 µM.
As for “GAGUACUGAGGAUAUACAUGAGGAUCACCCAUGUGUUCCAACUAGGAAUCUAGAGUAUGUAGAAGGCAGUGCUG [salish99_ex3_r4_704] (Eterna round: R97, puzzle: Exclusion 3)”, the “apparent KD of MS2 coat protein” value runs as follows: (input ligand: FMN 200 uM) 0.145 µM; (input ligand: none) 0.13 µM.
As for “GAGUGACAUGAGGAUCACCCAUGUAAGGAUAUACGGUUGGUAGAGAGAGGGCGAAAGGGUAGAAGGUACGAAGG [JR_Exclu1_Sub054] (puzzle: Exclusion 1)”, the “apparent KD of MS2 coat protein” value runs as follows: under setting [2], 0.0646 µM; under setting [3], 0.076 µM; under setting [4], 0.0952 µM.
With “GAUAAGGGAGGAUAUACGGAACGGUUUAUGCUCAGUGAGGCACAUGAGGAUCACCCAUGUAGAAGGCCCGACAG [Gezaerti] (puzzle: Exclusion 2)”, the “apparent KD of MS2 coat protein” value under setting [3] is 0.0256 µM.
“GAUAAGGUAGGAUAUACGAAUAAAGAGGGUAGUAAUAAUACACAUGAGGAUCACCCAUGUAGAAGGACCAAUAG [Mat - Exclusion 2 - Mod of my Tesla design - D42] (puzzle: Exclusion 2)”: the “apparent KD of MS2 coat protein” value by setting is: under setting [2], 0.0412 µM; under setting [3], 0.0193 µM; under setting [4], 0.0179 µM.
Consider “GAUCAACAUGAGGAUCACCCAUGUGAGGAUAUGAUACUAUGUACUUCGGUACAUAGUAUCAGAAGGCAUUAGGA [Ex1-3: 39] (puzzle: Exclusion 1)”, for which the “apparent KD of MS2 coat protein” value under setting [3] stood at 0.0523 µM.

The record behind these values is the supplement of paper PMC9170038.
